In US12642846B2:

Target: ZIKV sE-WT protein (Zika virus)
Experiment: SPR (BIOCORE8000), sE amine-coupled on CM5 chip, antibody as mobile phase

How did the Kd turn out when 2A10G6 antibody was run?
Its Kd is 9.13 nM.
